Experiments:
[1] = tested on: CC(=O)N[C@H]1[C@H](Oc2ccc3c(C)cc(=O)oc3c2)O[C@H](COS(=O)(=O)O)[C@@H](O)[C@@H]1O; assay: purified protein; details: pH 6.0, 25 °C, 25 mM Bis-tris propane, 25 mM citrate, 300 mM NaCl
[2] = tested on: CC(=O)N[C@H]1[C@H](Oc2ccc3c(C)cc(=O)oc3c2)O[C@H](COS(=O)(=O)O)[C@@H](O)[C@@H]1O; assay: fluorometric release of 4-methylumbelliferone, Michaelis-Menten fit; assay type: biochemical, Prevotella sp. CAG:5226; details: pH 6.0, 25 °C, 25 mM Bis-tris propane, 25 mM citrate, 300 mM NaCl
Text: (§1) fluorometric release of 4-methylumbelliferone, Michaelis-Menten fit on WG enzyme

[3] = tested on: CC(=O)N[C@H]1[C@H](Oc2ccc3c(C)cc(=O)oc3c2)O[C@H](CO)[C@@H](O)[C@@H]1O; assay: as above; assay type: biochemical, Prevotella sp. CAG:5226; details: pH 6.0, 25 °C, 25 mM Bis-tris propane, 25 mM citrate, 300 mM NaCl
Text: as §1

[4] = tested on: T1, CC(=O)N[C@H]1[C@H](Oc2ccc3c(C)cc(=O)oc3c2)O[C@H](COS(=O)(=O)O)[C@@H](O)[C@@H]1O; assay: as above; assay type: biochemical, Bacteroides thetaiotaomicron; details: pH 5.5, 25 °C, 25 mM Bis-tris propane, 25 mM citrate, 300 mM NaCl
T1 construct: residues 22-546, His6-tagged (pET23-Bt4394(22-546)-6His), expressed in E. coli BL21(DE3)
Text: (§2) fluorometric release of 4-methylumbelliferone, Michaelis-Menten fit on Bt4394

[5] = tested on: CC(=O)N[C@H]1[C@H](Oc2ccc3c(C)cc(=O)oc3c2)O[C@H](CO)[C@@H](O)[C@@H]1O; assay: purified protein; details: pH 6.0, 25 °C, 25 mM Bis-tris propane, 25 mM citrate, 300 mM NaCl
Text: fluorometric release of 4-methylumbelliferone, Michaelis-Menten fit on YG enzyme

[6] = substrate: CC(=O)N[C@H]1[C@H](Oc2ccc3c(C)cc(=O)oc3c2)O[C@H](CO)[C@@H](O)[C@@H]1O; assay: fluorometric release of 4-methylumbelliferone, Michaelis-Menten fit; assay type: biochemical, Bacteroides thetaiotaomicron; details: pH 5.5, 25 °C, 25 mM Bis-tris propane, 25 mM citrate, 300 mM NaCl
Text: as §2

[7] = substrate: CC(=O)N[C@H]1[C@H](Oc2ccc3c(C)cc(=O)oc3c2)O[C@H](COS(=O)(=O)O)[C@@H](O)[C@@H]1O; assay: as above; assay type: biochemical, Bacteroides thetaiotaomicron; details: pH 5.5, 25 °C, 25 mM Bis-tris propane, 25 mM citrate, 300 mM NaCl
Text: as §2

WG enzyme (Prevotella sp. CAG:5226; R424A)
Km [1]: 47 ± 6 µM | kcat [1]: 62 ± 2 s⁻¹ | kcat/Km [1]: 1.3e+06 ± 300000 M⁻¹ s⁻¹

WG enzyme (Prevotella sp. CAG:5226; N423D)
Km [1]: 56 ± 6 µM | kcat [1]: 69 ± 4 s⁻¹ | kcat/Km [1]: 1.2e+06 ± 700000 M⁻¹ s⁻¹

WG enzyme (Prevotella sp. CAG:5226)
Km [2]: 5.1 ± 0.3 µM | kcat [2]: 39.9 ± 0.6 s⁻¹ | kcat/Km [2]: 8e+06 ± 2e+06 M⁻¹ s⁻¹ | Km [3]: 2706 ± 344 µM | kcat [3]: 11.6 ± 0.5 s⁻¹ | kcat/Km [3]: 4000 ± 2000 M⁻¹ s⁻¹

Bt4394 (Bacteroides thetaiotaomicron VPI-5482; I432G/Q431Y)
Km [4]: 546 ± 37 µM | kcat [4]: 31.6 ± 0.7 s⁻¹ | kcat/Km [4]: 60000 ± 20000 M⁻¹ s⁻¹

YG enzyme (Alloprevotella sp. oral taxon 473 str. F0040; R446A)
Km [1]: 90 ± 9 µM | kcat [1]: 97 ± 3 s⁻¹ | kcat/Km [1]: 1.1e+06 ± 300000 M⁻¹ s⁻¹

YG enzyme (Alloprevotella sp. oral taxon 473 str. F0040; N445D)
Km [1]: 130 ± 14 µM | kcat [1]: 98 ± 3 s⁻¹ | kcat/Km [1]: 800000 ± 200000 M⁻¹ s⁻¹

WG enzyme (Prevotella sp. CAG:5226; W417A)
Km [1]: 17 ± 2 µM | kcat [1]: 45 ± 1 s⁻¹ | kcat/Km [1]: 2.6e+06 ± 300000 M⁻¹ s⁻¹

YG enzyme (Alloprevotella sp. oral taxon 473 str. F0040)
Km [1]: 12 ± 1 µM | kcat [1]: 76 ± 2 s⁻¹ | kcat/Km [1]: 6e+06 ± 2e+06 M⁻¹ s⁻¹ | Km [5]: 2209 ± 355 µM | kcat [5]: 11.7 ± 0.7 s⁻¹ | kcat/Km [5]: 5000 ± 2000 M⁻¹ s⁻¹

Bt4394 (Bacteroides thetaiotaomicron VPI-5482; I432G/Q431W)
Km [4]: 194 ± 16 µM | kcat [4]: 12 ± 0.3 s⁻¹ | kcat/Km [4]: 60000 ± 20000 M⁻¹ s⁻¹

B1: Bt4394 (Bacteroides thetaiotaomicron VPI-5482) (protein)
chain: QEIALTPQPAHLTVKDGRFEFGNQLKAKVTPYQGDSIRMVFESFKKELQEATGIKVSSTQKEAKARIILDLNPQLPAEAYKLNVSKKQVRIEASRPAGFYYALQTLKQLMPRNVMAGVATSDHSQWSLPSVEIEDAPRFEWRGFMLDEGRHFFGKDEIKRVIDMMAIYKMNRFHWHLTEDQGWRIEIKKYPKLTETGAWRNSKVLAYGDVKPDGERYGGFYTQKDIKEIVAYAKKKFIEIIPEIDIPGHSQAAVAAYPEFLACDPRDKHEVWLQQGISTDVINVANPKAMQFAKEVIDELTELFPFNYIHLGGDECPTRKWQKNDECKKLLSEIGSSNFRDLQIYFYKQLKDYIATKPADQQRQLIFWNEVLHGNTSILGNDITIMAWIGANAAAKQAAKQGMNTILSPQIPYYINRKQSKLPTEPMSQGHGTETVEAVYNYQPLKDVDAALQPYYKGVQANFWTEWVTEPSVLEYLMLPRLAAVAEAGWTPQEKRNYEDFKERIRKDAELYDLKGWNYGKHIMK
notes: residues 22-546, His6-tagged (pET23-Bt4394(22-546)-6His), expressed in E. coli BL21(DE3)
Km [6]: 2183 ± 189 µM | kcat [6]: 2.9 ± 0.1 s⁻¹ | kcat/Km [6]: 1300 ± 500 M⁻¹ s⁻¹ | Km [7]: 39 ± 4 µM | kcat [7]: 25.8 ± 0.7 s⁻¹ | kcat/Km [7]: 700000 ± 200000 M⁻¹ s⁻¹
